B1: STEAP1 (parent)
chain: WMLTRKQFGLLSFFFAVLHAIYSL
B2: PCDHGA10 (parent)
chain: FGIEIEVTDINDNAPKFQAENLDV

Variants of: B1
Test: protein stability index of a GFP-peptide fusion (GPS, HEK-293T) (PSI 1-6); higher = more stable
Details: c terminus: a fixed tail appended
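Also: lentivirally expressed fusions sorted by FACS into six bins by GFP to DsRed ratio, PSI derived from sequencing read proportions per bin multiplied by bin number.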

Protein stability index: each site, then its substitutions
F15: L 2 | W 1.55 | N 1.4 | E 2.7 | Q 2.62 | M 1.62 | I 1.94 | Y 1.71 | S 1.74 | P 1.78 | G 1.58 | T 1.32 | D 2.78 | A 1.82 | C 1.77 | K 1.58 | V 1.51 | H 1.73 | R 1.7
I21: R 3.01 | F 2.26 | S 2.16 | D 3.17 | C 2.21 | Q 1.61 | M 1.66 | N 2.81 | K 2.41 | G 2.17 | E 4.75 | Y 1.95 | V 2.18 | P 3.02 | H 3.26 | A 3.66 | L 3.18 | T 1.05 | W 1.63
L18: V 1.66 | E 3.98 | C 2.75 | F 1.63 | S 1.86 | Q 2.82 | G 2.66 | W 1.74 | T 1.92 | R 1.8 | D 3.5 | P 3.09 | K 3.01 | I 2 | A 2.43 | Y 2.13 | H 2.03
Y22: D 2.97 | C 2.43 | P 2.29 | K 2.29 | I 1.1 | Q 2.21 | N 1.34 | E 2.93 | F 1.56 | R 2.46 | G 2.2 | H 2.1 | W 1.99 | L 1.79 | M 2.45 | T 2.03 | A 1.58 | V 2.48 | S 1.63
G9: E 1.99 | K 2.04 | Q 2.07 | F 1.94 | S 1.98 | H 2 | W 2.24 | V 1.83 | C 1.89 | Y 2.75 | I 1.83 | M 2.12 | L 1.89 | R 2.97 | T 1.25 | A 2.27 | D 3.04 | N 1.46
F14: M 1.41 | Q 3.11 | E 3.11 | P 2.09 | K 2.49 | Y 1.47 | D 3.4 | H 2 | W 1.82 | A 3.09 | C 2.35 | I 2.96 | G 2.11 | L 1.73 | T 2.46 | S 2.82 | N 2.85 | V 1.69 | R 1.51
A16: K 1.46 | V 1.51 | L 1.64 | S 1.45 | T 2.63 | I 1.77 | G 1.77 | D 2.07 | Y 1.54 | N 1.88 | E 1.67 | W 2.19 | M 1.13 | R 1.93 | Q 1.52 | H 1.76 | C 1.69 | P 1.59 | F 1.93
F13: Q 1.78 | V 3.35 | R 2.44 | M 2.13 | H 3.2 | Y 1.95 | T 2.69 | L 2.65 | A 3.27 | P 1.95 | W 1.67 | E 4.58 | K 2.38 | I 2.11 | G 2.25 | C 2.02
S23: Q 1.39 | V 1.94 | T 1.55 | A 1.36 | E 1.49 | N 2.21 | R 2.43 | P 1.89 | C 1.75 | H 1.71 | D 1.95 | F 1.79 | W 2 | I 1.92 | Y 2.37 | M 2.3 | L 1.27 | G 1.48 | K 2.01
L24: D 2.7 | A 1.91 | Q 1.94 | I 1.86 | E 1.4 | G 2.74 | R 1.84 | K 3.44 | P 2.08 | M 1.97 | W 2.13 | F 1.46 | T 2.26 | Y 2 | C 2 | V 2.27 | H 1.83 | S 2.14 | N 1.98
L11: G 1.96 | W 1.72 | P 1.57 | A 2.01 | T 1.95 | Q 1.67 | E 2.43 | M 2.52 | V 2.15 | K 1.34 | S 1.62 | I 2.31 | N 3.38 | Y 2.31 | C 1.48 | F 1.72 | D 2.23 | R 1.51
Q7: W 1.86 | S 1.52 | V 3.1 | R 1.7 | P 1.45 | M 3.42 | Y 2.28 | T 2.17 | L 1.94 | N 2.23
L10: W 1.35 | H 2.09 | Y 1.66 | Q 3.24 | G 2 | V 1.52 | F 1.85 | P 1.33 | C 1.98 | D 2.52 | K 1.73 | T 1.96 | R 4.36 | I 2.05 | E 2.17 | N 1.99 | S 1.53 | A 1.76 | M 1.83
V17: L 1.7 | H 3.31 | C 2.6 | G 2.58 | W 2.33 | T 2.33 | D 5.3 | M 2.85 | K 2.53 | P 2.19 | Q 3.15 | F 3.24 | E 2.34 | S 2.07 | N 4.05 | Y 2.99 | A 2.25 | I 1.73
S12: A 2.05 | K 1.86 | C 1.88 | L 1.66 | Q 2.38 | W 2.76 | G 1.75 | P 3.09 | N 2.05 | D 1.28 | V 1.67 | F 1.9 | R 2.57 | Y 1.25 | I 1.61 | E 2.95 | M 1.67 | H 1.94 | T 1.84
A20: C 2.18 | F 2.8 | K 1.78 | W 1.79 | I 1.88 | D 2.62 | T 1.36 | Y 2.1 | R 1.73 | Q 2.69 | P 2.51 | E 2.56 | H 1.62 | V 1.08 | L 2.46 | S 2.41 | N 2.02 | G 2.13 | M 1.66
H19: N 1.89 | E 1.65 | Q 2.22 | W 3.67 | D 1.82 | C 2.94 | K 2.16 | I 2.58 | V 3.14 | L 2.59 | S 2.34 | M 3.02 | R 1.74 | Y 3.25 | G 2.77 | F 2.76 | A 3.76 | T 2.67 | P 3.26
F8: E 1.64 | S 1.84 | P 1.64 | N 1.73 | G 1.18 | M 1.94 | H 2.16 | A 1.74 | Y 1.84 | T 3.12 | R 2.31 | Q 2.11 | K 1.67 | D 2.31 | W 1.88 | I 1.5 | L 2.04 | V 2.14 | C 1.67

Variants of: B2
Test: as above
Details: c terminus: a fixed tail appended

Protein stability index: each site, then its substitutions
F1: L 3.05 | I 2.57 | H 4.67 | E 4.8 | K 4.39 | D 4.71 | C 3.59 | A 4.72 | G 4.49
